We go through 24 variants from article PMC13397619.

The chains are these.
B1: NLV2 TCR alpha chain (CDR3α only) (parent)
chain: AGPMKTSYDKVI

In the first assay the parent is B1. Put plainly: T-Switch: Jurkat TCRβ−/− cells expressing a CDR3 saturation-mutagenesis library, stained with two peptide-HLA-A*02:01 tetramers (original and novel peptide) plus anti-CD3, FACS-sorted into four gates, gDNA sequenced. The following applies: with both tetramers (double-negative gate, binds neither): HLA-A*02:01 with … and with …, tetramers 1 µg/mL, 30 min on ice, SP, DP and SW gates expanded about 10 days between rounds ('two to three rounds of selection' in the Methods), gate DN: OPPOSITE: higher = more of the variant in the gate that binds neither peptide = LESS binding (or no expression; inferred). Fold enrichment of the CDR3 variant in one FACS gate of a two-tetram, unresolved parent, parent is a CDR3 fragment, scale: fold enrichment, numbering: sequential-on-construct, sequence starts at 1.
For the variant […] (CDR3 as printed); I12E derived by comparing it with the table's wild-type CDR3 AGPMKTSYDKVI, the enrichment turned out to be 1.18.

With […] (CDR3 as printed); K10T derived by comparing it with the table's wild-type CDR3 AGPMKTSYDKVI, the enrichment came out at 1.24.

With […] (CDR3 as printed); V11W derived by comparing it with the table's wild-type CDR3 AGPMKTSYDKVI, the enrichment turned out to be 0.939.

[…] (CDR3 as printed); S7D derived by comparing it with the table's wild-type CDR3 AGPMKTSYDKVI: the enrichment is 0.804.

Turning to […] (CDR3 as printed); A1R derived by comparing it with the table's wild-type CDR3 AGPMKTSYDKVI, the enrichment was 0.924.

As for […] (CDR3 as printed); K5R derived by comparing it with the table's wild-type CDR3 AGPMKTSYDKVI, the enrichment amounted to 1.15.

With […] (CDR3 as printed); G2W derived by comparing it with the table's wild-type CDR3 AGPMKTSYDKVI, the enrichment came to 1.05.

For […] (CDR3 as printed); V11C derived by comparing it with the table's wild-type CDR3 AGPMKTSYDKVI, the enrichment came out at 1.08.

Take […] (CDR3 as printed); T6G derived by comparing it with the table's wild-type CDR3 AGPMKTSYDKVI: the enrichment is 1.02.

Turning to […] (CDR3 as printed); K10Y derived by comparing it with the table's wild-type CDR3 AGPMKTSYDKVI, the enrichment is 0.393.

Regarding […] (CDR3 as printed); K5A derived by comparing it with the table's wild-type CDR3 AGPMKTSYDKVI, the enrichment is 0.428.

Consider […] (CDR3 as printed); Y8I derived by comparing it with the table's wild-type CDR3 AGPMKTSYDKVI, for which the enrichment amounted to 1.11.

Take […] (CDR3 as printed); S7Y derived by comparing it with the table's wild-type CDR3 AGPMKTSYDKVI: the enrichment came out at 0.999.

For […] (CDR3 as printed); P3L derived by comparing it with the table's wild-type CDR3 AGPMKTSYDKVI, the enrichment was determined as 1.13.

Consider […] (CDR3 as printed); P3Q derived by comparing it with the table's wild-type CDR3 AGPMKTSYDKVI, for which the enrichment was determined as 1.16.

As to […] (CDR3 as printed); V11F derived by comparing it with the table's wild-type CDR3 AGPMKTSYDKVI, the enrichment worked out at 1.29.

Consider […] (CDR3 as printed); Y8N derived by comparing it with the table's wild-type CDR3 AGPMKTSYDKVI, for which the enrichment stood at 0.932.

For […] (CDR3 as printed); K5C derived by comparing it with the table's wild-type CDR3 AGPMKTSYDKVI, the enrichment was 1.03.

As for […] (CDR3 as printed); P3V derived by comparing it with the table's wild-type CDR3 AGPMKTSYDKVI, the enrichment came out at 1.02.

As for […] (CDR3 as printed); K10S derived by comparing it with the table's wild-type CDR3 AGPMKTSYDKVI, the enrichment worked out at 1.01.

As for […] (CDR3 as printed); K10W derived by comparing it with the table's wild-type CDR3 AGPMKTSYDKVI, the enrichment is 1.38.

For […] (CDR3 as printed); V11K derived by comparing it with the table's wild-type CDR3 AGPMKTSYDKVI, the enrichment worked out at 1.49.

With […] (CDR3 as printed); Y8V derived by comparing it with the table's wild-type CDR3 AGPMKTSYDKVI, the enrichment was determined as 1.48.

For the variant […] (CDR3 as printed); K5D derived by comparing it with the table's wild-type CDR3 AGPMKTSYDKVI, the enrichment came out at 0.812.

Staying with this assay, now noted: with both tetramers (double-positive gate): HLA-A*02:01 with … and with …, tetramers 1 µg/mL, 30 min on ice, SP, DP and SW gates expanded about 10 days between rounds ('two to three rounds of selection' in the Methods), gate DP: higher = more of the variant in the gate that binds both peptides. Fold enrichment of the CDR3 variant in one FACS gate of a two-tetramer stain. SP/DP/SW gates were expanded and re-sorted bef, unresolved parent, parent is a CDR3 fragment, scale: fold enrichment, numbering: sequential-on-construct, sequence starts at 1.
Consider […] (CDR3 as printed); I12E derived by comparing it with the table's wild-type CDR3 AGPMKTSYDKVI, for which the enrichment stood at 0.

For the variant […] (CDR3 as printed); K10T derived by comparing it with the table's wild-type CDR3 AGPMKTSYDKVI, the enrichment amounted to 0.

Consider […] (CDR3 as printed); V11W derived by comparing it with the table's wild-type CDR3 AGPMKTSYDKVI, for which the enrichment is 0.

For the variant […] (CDR3 as printed); S7D derived by comparing it with the table's wild-type CDR3 AGPMKTSYDKVI, the enrichment came to 0.

On to […] (CDR3 as printed); A1R derived by comparing it with the table's wild-type CDR3 AGPMKTSYDKVI, for which the enrichment was 0.

Take […] (CDR3 as printed); K5R derived by comparing it with the table's wild-type CDR3 AGPMKTSYDKVI: the enrichment worked out at 0.

As to […] (CDR3 as printed); G2W derived by comparing it with the table's wild-type CDR3 AGPMKTSYDKVI, the enrichment was 0.

On to […] (CDR3 as printed); V11C derived by comparing it with the table's wild-type CDR3 AGPMKTSYDKVI, for which the enrichment was found to be 0.

For the variant […] (CDR3 as printed); T6G derived by comparing it with the table's wild-type CDR3 AGPMKTSYDKVI, the enrichment stood at 0.

As for […] (CDR3 as printed); K10Y derived by comparing it with the table's wild-type CDR3 AGPMKTSYDKVI, the enrichment came out at 0.

For […] (CDR3 as printed); K5A derived by comparing it with the table's wild-type CDR3 AGPMKTSYDKVI, the enrichment amounted to 0.

On to […] (CDR3 as printed); Y8I derived by comparing it with the table's wild-type CDR3 AGPMKTSYDKVI, for which the enrichment turned out to be 0.

Regarding […] (CDR3 as printed); S7Y derived by comparing it with the table's wild-type CDR3 AGPMKTSYDKVI, the enrichment came out at 0.

Regarding […] (CDR3 as printed); P3L derived by comparing it with the table's wild-type CDR3 AGPMKTSYDKVI, the enrichment is 0.

[…] (CDR3 as printed); P3Q derived by comparing it with the table's wild-type CDR3 AGPMKTSYDKVI: the enrichment amounted to 0.

Consider […] (CDR3 as printed); V11F derived by comparing it with the table's wild-type CDR3 AGPMKTSYDKVI, for which the enrichment turned out to be 0.

As to […] (CDR3 as printed); Y8N derived by comparing it with the table's wild-type CDR3 AGPMKTSYDKVI, the enrichment stood at 0.

As for […] (CDR3 as printed); K5C derived by comparing it with the table's wild-type CDR3 AGPMKTSYDKVI, the enrichment came to 0.

For the variant […] (CDR3 as printed); P3V derived by comparing it with the table's wild-type CDR3 AGPMKTSYDKVI, the enrichment stood at 0.

Turning to […] (CDR3 as printed); K10S derived by comparing it with the table's wild-type CDR3 AGPMKTSYDKVI, the enrichment stood at 0.

In the case of […] (CDR3 as printed); K10W derived by comparing it with the table's wild-type CDR3 AGPMKTSYDKVI, the enrichment worked out at 0.

As to […] (CDR3 as printed); V11K derived by comparing it with the table's wild-type CDR3 AGPMKTSYDKVI, the enrichment worked out at 0.

For […] (CDR3 as printed); Y8V derived by comparing it with the table's wild-type CDR3 AGPMKTSYDKVI, the enrichment turned out to be 0.

For the variant […] (CDR3 as printed); K5D derived by comparing it with the table's wild-type CDR3 AGPMKTSYDKVI, the enrichment amounted to 0.
